# According to the supplement of paper PMC7877785:
# ± gives the uncertainty stated by the source.
# Experiment: self-splicing fitness, log relative to wild type (ln ratio); higher = more splicing; Tetrahymena group I intron in knt gene, E. coli kanamycin selection, DiMSum; sequences stand for … in CUCUCU…GGAGGGAAAAGUUAUCAGGCAUGCACCUGGUAGCUAGUCUUUAAACCAAUAGAUUGCAUCGGUUUAAAAGGCAAGACCGUCAAAUUGCGGGAAAGGGGUCAACAGCCGUUCAGUACCAAGUCUCAGGGGAAACUUUGAGAUGGCCUUGCAAAGGGUAUGGUAAUAAGCUGACGGACAUGGUCCUAACCACGCAGCCAAGUCCUAAGUCAACAGAUCUUCUGUUGAUAUGGAUGCAGUUCACAGACUAAAUGUCGGUCGGGGAAGAUGUAUUCUUCUCAUAAGAUAUAGUCGGACCUCUCCUUAAUGGGAGCUAGCGGAUGAAGUGAUGCAACACUGGAGCCGCUGGGAACUAAUUUGUAUGCGAAAGUAUAUUGAUUAGUUUUGGAGUACUCGUGGUCG
# Method in brief: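 Pooled colonies went to amplicon sequencing on an Illumina HiSeq 2500 after six replicate transformations. The plates were LB agar with 100 μg/mL carbenicillin, 50 μM IPTG and 0.2% rhamnose, with or without 25 μg/mL kanamycin, incubated overnight at 37°C or 30°C. The E. coli BL21(DE3) library had all eight P1ex-region intron nucleotides randomised, the intron placed in the knt kanamycin-resistance gene on pET-22b(+). DiMSum fitness is the error-weighted combination of replicate fold changes, kanamycin against none, normalised to wild type.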
Sequence,self-splicing fitness (ln) (30 °C),self-splicing fitness (ln) (37 °C)
CCUAAGCAAUAUUACGGCCG,-0.351 ± 0.18,-0.367 ± 0.22
GUCCAGCAAUAUUACGCUCU,-0.327 ± 0.1,0.137 ± 0.12
CAUCAGCAAUAUUACGUUGC,-3.81 ± 0.27,-2.84 ± 0.2
GCGAAGCAAUAUUACGGGCU,-2.68 ± 0.19,-1.88 ± 0.17
UGUCAGCAAUAUUACGGAGA,-1.58 ± 0.1,-0.867 ± 0.091
ACUCAGCAAUAUUACGAUGA,-1.82 ± 0.12,-0.791 ± 0.11
CUUAAGCAAUAUUACGGAAU,-3.96 ± 0.31,-2.29 ± 0.31
UCCAAGCAAUAUUACGAUUU,-3.72 ± 0.26,-2.71 ± 0.28
CGGCAGCAAUAUUACGCUAU,-3.57 ± 0.28,-2.75 ± 0.26
GAUGAGCAAUAUUACGACAU,-1.797 ± 0.016,-1.02 ± 0.034
ACCAAGCAAUAUUACGUUCG,-1.88 ± 0.07,-0.644 ± 0.093
UGCUAGCAAUAUUACGAAGU,-2.88 ± 0.3,-2.51 ± 0.49
UAACAGCAAUAUUACGCCAG,-2.03 ± 0.12,-1.42 ± 0.18
GAGAAGCAAUAUUACGCGGA,-2.51 ± 0.22,-1.39 ± 0.17
CGGGAGCAAUAUUACGCGCA,–,-0.737 ± 0.49
CCACAGCAAUAUUACGGCUG,-3.26 ± 0.15,-2.48 ± 0.15
AACGAGCAAUAUUACGAGUU,-3.48 ± 0.32,-2.1 ± 0.22
CGUAAGCAAUAUUACGACAA,–,-1.32 ± 0.23
UAUAAGCAAUAUUACGCAUU,-2.15 ± 0.21,-0.414 ± 0.14
CUUCAGCAAUAUUACGCGAC,-2.88 ± 0.31,-1.75 ± 0.41
GUCCAGCAAUAUUACGGAAA,-0.248 ± 0.095,0.62 ± 0.12
UAUAAGCAAUAUUACGUAGU,-3.65 ± 0.25,-2.07 ± 0.25
CUUUAGCAAUAUUACGAGGC,-2.85 ± 0.41,-1.36 ± 0.26
CAUAAGCAAUAUUACGGAGC,-3.94 ± 0.29,-3.35 ± 0.22
CAUUAGCAAUAUUACGUCUC,-3.28 ± 0.27,-1.76 ± 0.23
UAGCAGCAAUAUUACGGGCU,-3.39 ± 0.15,-1.08 ± 0.12

Sequence,self-splicing fitness (ln) (30 °C),self-splicing fitness (ln) (37 °C)
AAUCAGCAAUAUUACGAGGA,-2.13 ± 0.12,-1.23 ± 0.11
CAACAGCAAUAUUACGAAUU,-4.19 ± 0.26,-1.84 ± 0.12
UAAGAGCAAUAUUACGCUUC,-3.71 ± 0.25,-2.46 ± 0.25
GCCCAGCAAUAUUACGCAUG,-3.92 ± 0.33,-2.24 ± 0.38
GUCUAGCAAUAUUACGAGAG,-2.4 ± 0.17,-1.33 ± 0.12
CUGAAGCAAUAUUACGUACC,-3.37 ± 0.36,–
ACCAAGCAAUAUUACGAAGC,-3.94 ± 0.23,-0.918 ± 0.15
CCCAAGCAAUAUUACGGACA,-3.25 ± 0.27,-2.07 ± 0.14
GCUAAGCAAUAUUACGCGGU,-2.97 ± 0.27,-2.72 ± 0.25
AAGGAGCAAUAUUACGAUAU,-3.03 ± 0.32,-2.37 ± 0.45
UGGGAGCAAUAUUACGGGUG,-3.33 ± 0.47,-0.981 ± 0.26
UAACAGCAAUAUUACGCAAU,-2.89 ± 0.15,-0.816 ± 0.15
AAGUAGCAAUAUUACGGCGC,-0.0482 ± 0.11,0.221 ± 0.14
UUAUAGCAAUAUUACGUCUU,-3.35 ± 0.3,-0.948 ± 0.17
UGUUAGCAAUAUUACGAUUG,-0.695 ± 0.084,-0.795 ± 0.12
GUGUAGCAAUAUUACGGCAA,-0.687 ± 0.17,-0.481 ± 0.23
GUCGAGCAAUAUUACGGGGG,-2.05 ± 0.29,–
CGUUAGCAAUAUUACGCGGU,-3.07 ± 0.19,-3.35 ± 0.29
CAUGAGCAAUAUUACGUGCC,-3.97 ± 0.33,-2.47 ± 0.32
GGCGAGCAAUAUUACGCUGC,-2.58 ± 0.39,-0.462 ± 0.37
CCGUAGCAAUAUUACGUGAC,-2.36 ± 0.15,–
AACCAGCAAUAUUACGGCUC,-1.34 ± 0.1,-0.82 ± 0.11
CGAAAGCAAUAUUACGGUUC,-3.34 ± 0.16,-2.33 ± 0.17
UAAUAGCAAUAUUACGCCUU,-3.48 ± 0.21,-1 ± 0.14
CCCUAGCAAUAUUACGGGAU,-3.82 ± 0.21,-3.12 ± 0.26
CUUCAGCAAUAUUACGAUGU,-3.67 ± 0.21,-2.07 ± 0.2

Sequence,self-splicing fitness (ln) (30 °C),self-splicing fitness (ln) (37 °C)
CAACAGCAAUAUUACGACUC,-1.74 ± 0.11,-0.579 ± 0.12
AACUAGCAAUAUUACGAUGU,-0.797 ± 0.082,-0.157 ± 0.12
CUAGAGCAAUAUUACGCUGC,-3.8 ± 0.33,-2.33 ± 0.33
AGCCAGCAAUAUUACGUGAU,-2.31 ± 0.075,-1.35 ± 0.098
UUGAAGCAAUAUUACGUCGU,-1.04 ± 0.074,-0.397 ± 0.11
ACACAGCAAUAUUACGUGGG,-3.5 ± 0.098,-1.88 ± 0.087
AGGGAGCAAUAUUACGCCGU,-2.11 ± 0.42,-0.233 ± 0.39
AGGCAGCAAUAUUACGUAGC,-2.64 ± 0.23,-1.29 ± 0.17
AAAGAGCAAUAUUACGAACA,-2.07 ± 0.35,-2.02 ± 0.4
CAUAAGCAAUAUUACGCGGU,-3.72 ± 0.24,-2.34 ± 0.17
GCAAAGCAAUAUUACGUCUU,-1.14 ± 0.074,-1.11 ± 0.075
UGACAGCAAUAUUACGCCGU,-2.54 ± 0.14,-1.85 ± 0.15
GCUGAGCAAUAUUACGCCUG,-1.28 ± 0.23,–
CCUCAGCAAUAUUACGCGGA,-2.68 ± 0.22,-3.28 ± 0.26
GUUAAGCAAUAUUACGGGUU,-3.44 ± 0.3,-2.98 ± 0.23
GGCAAGCAAUAUUACGCUAA,-0.671 ± 0.089,0.1 ± 0.12
AUGGAGCAAUAUUACGUCCG,-1.29 ± 0.12,-1.06 ± 0.13
CGUCAGCAAUAUUACGACGG,-0.836 ± 0.081,-0.516 ± 0.12
CGUAAGCAAUAUUACGGGCU,–,-1.92 ± 0.21
GCUGAGCAAUAUUACGGUAA,-3.07 ± 0.29,-2.44 ± 0.23
UGUCAGCAAUAUUACGGAUU,-1.57 ± 0.083,-0.507 ± 0.12
CCAGAGCAAUAUUACGCCAG,-3.07 ± 0.25,–
CGCAAGCAAUAUUACGCGAG,-3.98 ± 0.31,-2.43 ± 0.3
GUAAAGCAAUAUUACGUAGG,-2.5 ± 0.11,-1.35 ± 0.15
GCCGAGCAAUAUUACGGUCU,-2.23 ± 0.13,-2.26 ± 0.24
